{"source": "patent US20210388031A1", "about": "(New Jersey Institute of Technology, published 2021)", "biological_target": "SARS-CoV-2 Spike protein on live virus (SARS-CoV-2, UniProt P0DTC2)", "assay": "cell-based or functional assay", "data": [{"binder": "ESLSLSLSLSLSLEGSALEEGQLKTFLDKFMHELEDLLYQLAL", "note": "[ESBP2]", "values": [{"measurement": "IC50 of reduction in live-virus infectivity", "value": "< 10", "unit": "nM"}]}]}
